{"source": "paper PMC5262459", "molecular_target": "nucleosome with full-length recombinant Xenopus laevis histones acetylated by the lysine acetyltrans (X. laevis) (UniProt P62799)", "test": "single-particle negative-staining TEM in a DNA origami force spectrometer", "data": [{"substance": "nucleosome with full-length recombinant Xenopus laevis histones acetylated by the lysine acetyltrans (from UniProt P62799 1-103) (complex)", "values": [{"measurement": "depth of the minimum of the nucleosome pair potential", "value": -0.6, "unit": "kcal/mol"}]}]}
